Target: GLP-1 receptor
Experiment: cell-based or functional assay

Substance: GLP-1(7-37) parent (from UniProt P01275 98-128) (peptide)
- EC50, Receptor Functional assay (intracellular cAMP in CHO/GLP-1R cells): 0.0503 nM

Source: patent publication US20110269680A1, “GLP-1 ANALOGS AND USES THEREOF” (PANACEA BIOTEC LIMITED, priority 2008, published 2011)
